Target: T1, PUF4 RNA-binding domain (Saccharomyces cerevisiae, UniProt P25339 537-888)
T1 sequence: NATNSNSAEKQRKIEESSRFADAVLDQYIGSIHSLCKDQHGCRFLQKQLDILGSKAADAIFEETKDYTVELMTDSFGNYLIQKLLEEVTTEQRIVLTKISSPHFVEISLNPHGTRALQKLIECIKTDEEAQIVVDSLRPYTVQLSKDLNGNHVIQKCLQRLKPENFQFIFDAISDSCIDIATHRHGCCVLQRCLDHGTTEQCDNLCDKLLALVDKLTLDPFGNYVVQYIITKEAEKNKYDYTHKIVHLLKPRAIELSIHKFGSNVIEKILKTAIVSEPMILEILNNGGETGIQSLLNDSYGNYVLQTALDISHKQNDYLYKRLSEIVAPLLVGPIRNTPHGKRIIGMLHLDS
Assay: Mg; RNA-MaP; 20 mM Na-HEPES pH 7.4, 30 mM KOAc, 0.75 mM MgCl2, 0.1% Tween-20, 5% glycerol, 0.1 mg/mL BSA, 2 mM DTT; 25 C; 0.0125-409.6 nM protein
Settings: tags: N-His6-TEV cleaved; C-SNAP kept, Cy3B-labelled; label: tethered on chip by stalled RNA polymerase

B1: Ie_S1_P4E.1_K4.1_C4.1_H4.1_[+2TT]_A4.1_F4.1_T4.1 (ssRNA)
RNA: UCUCUUUGUUUAUAUUAUCUCUU
  Kd: 60.9 nM

B2: Ie_S1_P4E.1_K4.1_C4.1_H4.1_[+2TC]_A4.1_F4.1_T4.1 (ssRNA)
RNA: UCUCUUUGUCUAUAUUAUCUCUU
  Kd: 82.9 nM

B3: Ie_S1_P4E.1_K4.1_C4.1_H4.1_[+2CCTC]_A4.1_F4.1_T4.1 (ssRNA)
RNA: UCUCUUUGCCUCUAUAUUAUCUCUU
  Kd: 1010 nM

B4: Ie_S1_P4E.1_K4.1_C4.1_H4.1_[+2CTC]_A4.1_F4.1_T4.1 (ssRNA)
RNA: UCUCUUUGCUCUAUAUUAUCUCUU
  Kd: 583 nM

B5: Ie_S1_P4E.1_K4.1_C4.1_H4.1_[+2TTCC]_A4.1_F4.1_T4.1 (ssRNA)
RNA: UCUCUUUGUUCCUAUAUUAUCUCUU
  Kd: 101 nM

B6: Ie_S1_P4E.1_K4.1_C4.1_H4.1_[+2CTCTC]_A4.1_F4.1_T4.1 (ssRNA)
RNA: UCUCUUUGCUCUCUAUAUUAUCUCUU
  Kd: 733 nM

B7: Ie_S1_P4E.1_K4.1_C4.1_H4.1_[+3TC]_A4.1_F4.1_T4.1 (ssRNA)
RNA: UCUCUUUGUUCAUAUUAUCUCUU
  Kd: 134 nM

B8: Ie_S1_P4E.1_K4.1_C4.1_H4.1_[+2CCT]_A4.1_F4.1_T4.1 (ssRNA)
RNA: UCUCUUUGCCUUAUAUUAUCUCUU
  Kd: 1330 nM

B9: Ie_S1_P4E.1_K4.1_C4.1_H4.1_[+3TCT]_A4.1_F4.1_T4.1 (ssRNA)
RNA: UCUCUUUGUUCUAUAUUAUCUCUU
  Kd: 27.2 nM

B10: Ie_S1_P4E.1_K4.1_C4.1_H4.1_[+3TTT]_A4.1_F4.1_T4.1 (ssRNA)
RNA: UCUCUUUGUUUUAUAUUAUCUCUU
  Kd: 32.9 nM

B11: Ie_S1_P4E.1_K4.1_C4.1_H4.1_[+3TCTC]_A4.1_F4.1_T4.1 (ssRNA)
RNA: UCUCUUUGUUCUCAUAUUAUCUCUU
  Kd: 103 nM

B12: Ie_S1_P4E.1_K4.1_C4.1_H4.1_[+3TTCC]_A4.1_F4.1_T4.1 (ssRNA)
RNA: UCUCUUUGUUUCCAUAUUAUCUCUU
  Kd: 83.7 nM

B13: Ie_S1_P4E.1_K4.1_C4.1_H4.1_[+2CCCT]_A4.1_F4.1_T4.1 (ssRNA)
RNA: UCUCUUUGCCCUUAUAUUAUCUCUU
  Kd: 1080 nM

B14: Ie_S1_P4E.1_K4.1_C4.1_H4.1_[+2TCC]_A4.1_F4.1_T4.1 (ssRNA)
RNA: UCUCUUUGUCCUAUAUUAUCUCUU
  Kd: 40.4 nM

B15: Ic_S2_P3E.1_K3.1_C3.1_H3.1_A3.1_F3.1_[T7G]_[A8C]_T3.1 (ssRNA)
RNA: UUUGAUUAAUAUGAUAUCGUUCUUUCUUGUAUAGCUUCUUUCUCGAUAUCAUAUUAAUCUUU
  Kd: 109 nM

B16: Ic_S2_P3E.1_K3.1_C3.1_H3.1_A3.1_F3.1_[T7G]_[A8T]_T3.1 (ssRNA)
RNA: UUUGAUUAAUAUGAUAUCGUUCUUUCUUGUAUAGUUUCUUUCUCGAUAUCAUAUUAAUCUUU
  Kd: 25.9 nM

B17: Ie_S1_P4E.1_K4.1_C4.1_H4.1_[+2TCTCT]_A4.1_F4.1_T4.1 (ssRNA)
RNA: UCUCUUUGUCUCUUAUAUUAUCUCUU
  Kd: 134 nM

B18: Ie_S1_P4E.1_K4.1_C4.1_H4.1_[+2TCT]_A4.1_F4.1_T4.1 (ssRNA)
RNA: UCUCUUUGUCUUAUAUUAUCUCUU
  Kd: 45.9 nM

B19: Ie_S1_P4E.1_K4.1_C4.1_H4.1_[+3CTC]_A4.1_F4.1_T4.1 (ssRNA)
RNA: UCUCUUUGUCUCAUAUUAUCUCUU
  Kd: 37.3 nM

B20: Ie_S1_P4E.1_K4.1_C4.1_H4.1_[+2CTCT]_A4.1_F4.1_T4.1 (ssRNA)
RNA: UCUCUUUGCUCUUAUAUUAUCUCUU
  Kd: 984 nM

B21: Ie_S1_P4E.1_K4.1_C4.1_H4.1_[+3TCTCT]_A4.1_F4.1_T4.1 (ssRNA)
RNA: UCUCUUUGUUCUCUAUAUUAUCUCUU
  Kd: 49.6 nM

B22: Ie_S1_P4E.1_K4.1_C4.1_H4.1_[+3CTCTC]_A4.1_F4.1_T4.1 (ssRNA)
RNA: UCUCUUUGUCUCUCAUAUUAUCUCUU
  Kd: 948 nM

B23: Ie_S1_P4E.1_K4.1_C4.1_H4.1_[+3CTCT]_A4.1_F4.1_T4.1 (ssRNA)
RNA: UCUCUUUGUCUCUAUAUUAUCUCUU
  Kd: 121 nM

B24: Ie_S1_P4E.1_K4.1_C4.1_H4.1_[+2CCTCT]_A4.1_F4.1_T4.1 (ssRNA)
RNA: UCUCUUUGCCUCUUAUAUUAUCUCUU
  Kd: 2130 nM

B25: Ie_S1_P4E.1_K4.1_C4.1_H4.1_[+2CT]_A4.1_F4.1_T4.1 (ssRNA)
RNA: UCUCUUUGCUUAUAUUAUCUCUU
  Kd: 870 nM

B26: Ie_S1_P4E.1_K4.1_C4.1_H4.1_[+3TTCCT]_A4.1_F4.1_T4.1 (ssRNA)
RNA: UCUCUUUGUUUCCUAUAUUAUCUCUU
  Kd: 58.7 nM

Source: article PMC9352680, “A comprehensive thermodynamic model for RNA binding by the Saccharomyces cerevisiae Pumilio protein PUF4”
